Test results taken from US20250388640A1.

Biological target: hIL-12 receptor signaling complex (hIL-12Rβ1 and hIL-12Rβ2) (human) (UniProt P42701)
Test: cell-based or functional assay

Chain of hIL-12 receptor signaling complex (hIL-12Rβ1 and hIL-12Rβ2) (human) (Q99665 24-862, chain 2 of 2, other chains not shown): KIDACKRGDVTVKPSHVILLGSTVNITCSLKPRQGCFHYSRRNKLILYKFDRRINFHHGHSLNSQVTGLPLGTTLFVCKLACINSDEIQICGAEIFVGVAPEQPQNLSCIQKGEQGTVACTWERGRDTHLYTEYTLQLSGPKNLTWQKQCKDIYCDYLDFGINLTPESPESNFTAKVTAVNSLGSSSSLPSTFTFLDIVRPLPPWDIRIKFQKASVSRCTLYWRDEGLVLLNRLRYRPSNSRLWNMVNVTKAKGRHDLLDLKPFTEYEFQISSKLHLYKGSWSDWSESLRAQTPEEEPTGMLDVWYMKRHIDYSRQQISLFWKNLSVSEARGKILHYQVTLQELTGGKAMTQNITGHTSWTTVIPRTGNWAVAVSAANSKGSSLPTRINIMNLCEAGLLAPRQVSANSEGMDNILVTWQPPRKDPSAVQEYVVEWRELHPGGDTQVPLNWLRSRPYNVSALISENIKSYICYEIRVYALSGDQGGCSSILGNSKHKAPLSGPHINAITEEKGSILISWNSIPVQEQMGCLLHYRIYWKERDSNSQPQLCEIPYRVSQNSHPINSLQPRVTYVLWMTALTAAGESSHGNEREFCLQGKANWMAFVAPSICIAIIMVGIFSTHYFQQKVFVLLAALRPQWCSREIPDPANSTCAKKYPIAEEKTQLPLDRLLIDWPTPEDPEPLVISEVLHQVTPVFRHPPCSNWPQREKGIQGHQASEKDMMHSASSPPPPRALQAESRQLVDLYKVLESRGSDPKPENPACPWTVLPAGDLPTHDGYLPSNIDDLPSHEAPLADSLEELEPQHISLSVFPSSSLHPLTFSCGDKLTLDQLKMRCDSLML

pSTAT4 [%+] EC50, CD8+ T Cells | pSTAT4 [%+] EC50, CD56hi NK Cells | pSTAT4 [%+] Emax, CD8+ T Cells | pSTAT4 [%+] Emax, CD56hi NK Cells | pSTAT4 [gMFI] EC50, CD8+ T Cells | pSTAT4 [gMFI] EC50, CD56hi NK Cells | pSTAT4 [gMFI] Emax, CD8+ T Cells | pSTAT4 [gMFI] Emax, CD56hi NK Cells | Substance
1.86 nM | 2.27 nM | 75.9 %+ | 78.2 %+ | 6.65 nM | 9.12 nM | 80100 gMFI | 21600 gMFI | human IL12 mutein of the F82X panel printed as E81A/F82F/K106K in row r9 of Tables 10 and 11 (label printed a second time in r19 with other values) (ligand)
0.86 nM | 1.4 nM | 80.5 %+ | 86.1 %+ | 3.84 nM | 6.29 nM | 95900 gMFI | 26200 gMFI | human IL12 mutein, hIL-12p40 E81A, F82S with hIL-12p35-8X His (from UniProt P29460 23-328; P29459 23-219) (ligand)
